Residue numbers refer to the chain shown, from its start.
T1: ヒトFas抗原 on human lymphocyte cell line HPB-ALL (human, UniProt P25445 26-335)
T1 sequence (looked up): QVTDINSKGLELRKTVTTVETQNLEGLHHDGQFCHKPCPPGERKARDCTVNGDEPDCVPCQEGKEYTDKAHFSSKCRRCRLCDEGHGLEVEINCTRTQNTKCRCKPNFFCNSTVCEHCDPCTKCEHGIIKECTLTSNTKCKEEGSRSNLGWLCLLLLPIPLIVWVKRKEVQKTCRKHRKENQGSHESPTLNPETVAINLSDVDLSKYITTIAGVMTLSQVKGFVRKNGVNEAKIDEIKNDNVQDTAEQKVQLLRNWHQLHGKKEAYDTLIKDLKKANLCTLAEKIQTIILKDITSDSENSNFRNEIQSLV

B1: マウス抗ヒトFas抗体CH11(MBL社) (antibody, mouse IgM)
heavy: EVQLQQSGPELVKPGASVKISCKASGYTFTDYNMHWVKQSHGKSLEWIGYIYPYNGGTGYNQKFKSKATLTVDNSSSTAYMELRSLTSEDSAVYYCARSYYAMDYWGQGTSVTVSSESQSFPNVFPLVSCESPLSDKNLVAMGCLARDFLPSTISFTWNYQNNTEVIQGIRTFPTLRTGGKYLATSQVLLSPKSILEGSDEYLVCKIHYGGKNRDLHVPIPAVAEMNPNVNVFVPPRDGFSGPAPRKSKLICEATNFTPKPITVSWLKDGKLVESGFTTDPVTIENKGSTPQTYKVISTLTISEIDWLNLNVYTCRVDHRGLTFLKNVSSTCAASPSTDILTFTIPPSFADIFLSKSANLTCLVSNLATYETLNISWASQSGEPLETKIKIMESHPNGTFSAKGVASVCVEDWNNRKEFVCTVTHRDLPSPQKKFISKPNEVHKHPPAVYLLPPAREQLNLRESATVTCLVKGFSPADISVQWLQRGQLLPQEKYVTSAPMPEPGAPGFYFTHSILTVTEEEWNSGETYTCVVGHEALPHLVTERTVDKSTGKPTLYNVSLIMSDTGGTCY
light: DVVMTQSPLSLPVSLGDQASISCRSSKSLVHSNGNTYLHWYLQKPGQSPKLLIYKVSNRFSGVPDRFSGSGSGTDFTLKISRVEAEDLGVYFCSQSTHVPPAFGGGTKLEIKRADAAPTVSIFPPSSEQLTSGGASVVCFLNNFYPKDINVKWKIDGSERQNGVLNSWTDQDSKDSTYSMSSTLTLTKDEYERHNSYTCEATHKTSTSPIVKSFNRNEC
chain: DDEATILADNKCMCTRVTSRIIPSTEDPNEDIVERNIRIVVPLNNRENISDPTSPLRRNFVYHLSDVCKKCDPVEVELEDQVVTATQSNICNEDDGVPETCYMYDRNKCYTTMVPLRYHGETKMVQAALTPDSCYPD
B2: 抗ヒトFasヒト化抗体 [B] (expression product of pHμM1-1 and pHκKY2-58 in COS-7 cells; HμM heavy chain + VL-KY light chain) (antibody)
heavy: EVQLVQSGAEVKKPGASVKVSCKASGYTFTDYNMHWVKQAHGKSLEWMGYIYPYNGGTGYNQKFKSKATLTVDNSASTAYMELSSLRSEDTAVYYCARSYYAMDYWGQGTLVTVSSGSASAPTLFPLVSCENSPSDTSSVAVGCLAQDFLPDSITFSWKYKNNSDISSTRGFPSVLRGGKYAATSQVLLPSKDVMQGTDEHVVCKVQHPNGNKEKNVPLPVIAELPPKVSVFVPPRDGFFGNPRKSKLICQATGFSPRQIQVSWLREGKQVGSGVTTDQVQAEAKESGPTTYKVTSTLTIKESDWLSQSMFTCRVDHRGLTFQQNASSMCVPDQDTAIRVFAIPPSFASIFLTKSTKLTCLVTDLTTYDSVTISWTRQNGEAVKTHTNISESHPNATFSAVGEASICEDDWNSGERFTCTVTHTDLPSPLKQTISRPKGVALHRPDVYLLPPAREQLNLRESATITCLVTGFSPADVFVQWMQRGQPLSPEKYVTSAPMPEPQAPGRYFAHSILTVSEEEWNTGETYICVVAHEALPNRVTERTVDKSTGKPTLYNVSLVMSDTAGTCY
light: DVVMTQSPLSLPVTLGQPASISCRSSKSLVHSNGNTYLHWYLQKPGQSPKLLIYKVSNRFSGVPDRFSGSGSGTDFTLKISRVEAEDVGVYYCSQSTHVPPAFGQGTKVEIKRTVAAPSVFIFPPSDEQLKSGTASVVCLLNNFYPREAKVQWKVDNALQSGNSQESVTEQDSKDSTYSLSSTLTLSKADYEKHKVYACEVTHQGLSSPVTKSFNRGEC
B3: 抗ヒトFasヒト化抗体 [C] (expression product of pHμM1-1 and pHκKF2-19 in COS-7 cells; HμM heavy chain + VL-KF light chain) (antibody)
heavy: B2 heavy
light: B2 light with Y92F
B4: 抗ヒトFasヒト化抗体 [G] (expression product of pHμH5-1 and pHκKF2-19 in COS-7 cells; HμH heavy chain + VL-KF light chain) (antibody)
heavy: B2 heavy with K38R, H41P, K43Q, S44G
light: B2 light with Y92F
B5: 抗ヒトFasヒト化抗体 [I] (expression product of pHμH5-1 and pHκRF2-52 in COS-7 cells; HμH heavy chain + VL-RF light chain) (antibody)
heavy: B2 heavy with K38R, H41P, K43Q, S44G
light: B2 light with K50R, Y92F
B6: 抗ヒトFasヒト化抗体 [D] (expression product of pHμM1-1 and pHκRY2-10 in COS-7 cells; HμM heavy chain + VL-RY light chain) (antibody)
heavy: B2 heavy
light: B2 light with K50R
B7: 抗ヒトFasヒト化抗体 [E] (expression product of pHμM1-1 and pHκRF2-52 in COS-7 cells; HμM heavy chain + VL-RF light chain) (antibody)
heavy: B2 heavy
light: B2 light with K50R, Y92F

Target: T1, ヒトFas抗原 on human lymphocyte cell line …
Assay: cell-based or functional assay

Binder	ED 50 (IgM concentration at which HPB-ALL cell survival is 50%), 細胞障害活性
B1	10.7 ng/mL
B2	1.1 ng/mL
B3	1 ng/mL
B4	2.4 ng/mL
B5	3.4 ng/mL
B6	1.7 ng/mL
B7	1.5 ng/mL

Reference: JP2000154149A (dated 2000)
